For experiment [1], the target named is T1, recombinant IL-3Rα ectodomain (human, UniProt P26951 19-305).
T1 construct: extracellular domain; also called recombinant IL-3Ra; biotinylated-IL-3Rα ectodomain
T1 sequence (looked up): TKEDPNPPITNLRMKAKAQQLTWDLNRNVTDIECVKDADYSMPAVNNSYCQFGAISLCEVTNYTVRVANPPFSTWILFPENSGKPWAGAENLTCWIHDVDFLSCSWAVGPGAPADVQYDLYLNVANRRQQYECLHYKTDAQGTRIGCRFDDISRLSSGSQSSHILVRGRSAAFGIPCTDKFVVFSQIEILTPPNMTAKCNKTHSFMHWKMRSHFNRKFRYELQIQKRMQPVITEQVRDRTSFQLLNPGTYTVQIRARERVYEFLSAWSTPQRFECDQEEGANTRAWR
Briefly: ELISA on recombinant IL-3Ra ectodomain (panel 'IL-3Ra ELISA', lower left). A general note: ELISA stands for enzyme-linked immunosorbent assay.

In experiment [2] the target is T2, CXCR4 and IL-3Rα (CD123) co-expressed on MOLM-13 / THP-1 cells (human, UniProt P61073 1-352; P26951 19-378).
T2 construct: whole, on cells; two separate membrane proteins on one cell, not a complex; target of bispecifics on double-positive cells; also called CXCR4+/CD123+ cells
Kind of experiment: flow cytometry on MOLM-13 cells (IL-3Ra higher than CXCR4). For orientation: Flow cytometry measures light scatter and fluorescence of single cells or particles in a stream.

For experiment [3], the target named is T2, CXCR4 and IL-3Rα (CD123) co-expressed …. Kind of experiment: flow cytometry on THP-1 cells (CXCR4 and IL-3Ra).
Experiment [4] addresses T3, human CXCR4 (on cells, viral lipoparticles or membrane extracts) (human, UniProt P61073 1-352). Kind of experiment: cell-based or functional assay.
The target in experiment [5] is T4, CXCR4 and CD4 co-expressed on cells (MOLM-13, THP-1, MT-4, PBMC; Jurkat CD4 low) (human, UniProt P61073 1-352; P01730 26-458). Briefly: cell-based or functional assay.
Experiment [6] deals with T4, CXCR4 and CD4 co-expressed on cells …. Briefly: FACS, MOLM-13 cells (CXCR4+/CD4+).
Experiment [7] has the same target. Briefly: cell-based or functional assay. This is another data set of the same source.
Experiment [8] shares this target. Kind of experiment: flow cytometry on THP-1 cells (CD4 and CXCR4), detection via tag.
Experiment [9] has the same target. Briefly: FACS, Jurkat E6-1 cells (CXCR4+/CD4 low).
Experiment [10] has as its target T3, human CXCR4 (on cells, viral …). Briefly: cell-based or functional assay. The source holds these as a separate data set.
Experiment [11] has as its target T4, CXCR4 and CD4 co-expressed on cells …. Briefly: cell-based or functional assay. The source holds these as a separate data set.
For experiment [12], the target named is T5, human IL-3Rα (CD123), cell-expressed (human, UniProt P26951 19-378).
T5 construct: whole, on cells; also called IL-3Ra; Hek-IL-3Rα
Kind of experiment: FACS, MOLM-13 cells.

Experiment [13] concerns the target T5, human IL-3Rα (CD123), cell-expressed. Kind of experiment: flow cytometry on Molm-13 cells; EC50(M) printed in the legend box beside the curves.
Experiment [14] shares this target. Kind of experiment: FACS, THP-1 cells.
For experiment [15] the target is unchanged. Kind of experiment: FACS, HEK293T-IL-3Rα cells.
Experiment [16] has as its target T1, recombinant IL-3Rα ectodomain. Briefly: SPR ProteOn, immobilised IL-3Rα ectodomain.
Experiment [17] has the same target. Briefly: competition ELISA, coated mAb 7G3 + biotinylated IL-3Rα ectodomain.
The target of experiment [18] is T3, human CXCR4 (on cells, viral …). Kind of experiment: ELISA on coated CXCR4 viral lipoparticles (both upper panels).
Experiment [19] addresses T1, recombinant IL-3Rα ectodomain. Kind of experiment: ELISA on recombinant IL-3Ra ectodomain (lower right panel).
Experiment [20] addresses T3, human CXCR4 (on cells, viral …). Kind of experiment: flow cytometry at one concentration on Jurkat E6-1 cells (CXCR4+/CD123-), anti-FLAG detection.
The target of experiment [21] is T2, CXCR4 and IL-3Rα (CD123) co-expressed …. Briefly: flow cytometry at one concentration, 4.6 nM, on MOLM-13 cells (CXCR4+/CD123+), anti-FLAG detection.
For experiment [22], the target named is T3, human CXCR4 (on cells, viral …). Briefly: ELISA on coated CXCR4 viral lipoparticles (panel 'CXCR4 VLP Binding', upper left).

T2 sequence (P61073 whole entry, one chain of several): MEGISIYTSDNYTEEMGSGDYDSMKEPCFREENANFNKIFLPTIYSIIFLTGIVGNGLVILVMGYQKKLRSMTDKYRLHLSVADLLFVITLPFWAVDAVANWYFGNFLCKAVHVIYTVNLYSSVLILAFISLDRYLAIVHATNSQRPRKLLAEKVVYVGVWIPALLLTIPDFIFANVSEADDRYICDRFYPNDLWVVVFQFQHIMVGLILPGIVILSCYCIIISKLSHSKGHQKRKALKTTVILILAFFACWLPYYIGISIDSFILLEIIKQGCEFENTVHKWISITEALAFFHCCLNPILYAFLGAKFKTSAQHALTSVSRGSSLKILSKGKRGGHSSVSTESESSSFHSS
T4 sequence (P61073 whole entry, chain 1 of 2, other chains not shown): as the sequence (P61073 whole entry, one chain of several) above
T3 sequence (P61073 whole entry): as the sequence (P61073 whole entry, one chain of several) above

B1: 281F12-35GS-55A01 (bispecific antibody)
chain: EVQLVESGGGLVQAGDSLRLSCAASGRAFSRYAMGWFRQAPGKEREFVAAIGWGPSKTNYADSVKGRFTISRDNAKNTVYLQMNTLKPEDTAVYSCAAKFVNTDSTWSRSEMYTYWGQGTLVTVSSGGGGSGGGGSGGGGSGGGGSGGGGSGGGGSGGGGSEVQLVESGGGSVQAGGSLRLSCTTSGRALNMYVMGWFRQAPGNEREFVAATSSSGGSTSYPDSVKGRFTISRDNAKNTVYLQMNSLKPEDTAAYRCAASPYVSTPTMNILEEYRYWGQGTLVTVSS
notes: also called CXCR4#2-CD123#2; 281F12-55A01
Take B1: the “EC50 (read off the curve)” value in experiment [1] is approximately 1 nM. The “EC50 (read off the curve)” value in experiment [2] is approximately 10 nM. In addition, the “EC50 (read off the curve)” value in experiment [3] was approximately 10 nM. In experiment [4], the “Fold inc. vs CXCR4#2, Jurkat E6-1” value stood at 1.13 fold; the “Fold inc. vs CXCR4#2, MOLM-13” value amounted to 10.9 fold; the “IC50, CXCL-12 chemotaxis, Jurkat E6-1” value stood at 86 nM; the “IC50, CXCL-12 chemotaxis, MOLM-13” value was 7.85 nM.

B2: 03F11-35GS-281F12 (bispecific antibody)
chain: EVQLVESGGGSVQPGGSLTLSCGTSGRTFNVMGWFRQAPGKEREFVAAVRWSSTGIYYTQYADSVKSRFTISRDNAKNTVYLEMNSLKPEDTAVYYCAADTYNSNPARWDGYDFRGQGTQVTVSSGGGGSGGGGSGGGGSGGGGSGGGGSGGGGSGGGGSEVQLVESGGGLVQAGDSLRLSCAASGRAFSRYAMGWFRQAPGKEREFVAAIGWGPSKTNYADSVKGRFTISRDNAKNTVYLQMNTLKPEDTAVYSCAAKFVNTDSTWSRSEMYTYWGQGTQVTVSS
notes: also called CD4#8-35GS-CXCR4#2; CD4#8-CXCR4#2
With B2, in experiment [5], the “IC50, HIV-1 BaL (R5), PBMC” value came to 35.9 nM; the “IC50, HIV-1 NL4.3 (X4), MT-4” value came out at 11.7 nM; the “IC50, HIV-1 NL4.3 (X4), PBMC” value is 23.7 nM; the “IC50, HIV-1 NL4.3 (X4), U87” value is more than 3330 nM. This molecule displayed an EC50 in [6] of 0.7 nM. Moreover, in experiment [7], the “IC50, HIV-1 HE, MT-4” value was found to be 2 nM; the “IC50, HIV-1 NL4.3, MT-4” value was determined as 6 nM; the “IC50, HIV-2 ROD, MT-4” value worked out at 8.75 nM. Also, the “EC50 (read off the curve)” value in experiment [8] is approximately 1 nM. Further, the EC50 in experiment [9] was 1.1 nM. In experiment [10], the “Fold increase vs CXCR4#2, Jurkat E6-1” value was determined as 0.2 fold; the “Fold increase vs CXCR4#2, MOLM-13” value is 67 fold; the “IC50, SDF-1 chemotaxis, Jurkat E6-1” value is 460 nM; the “IC50, SDF-1 chemotaxis, MOLM-13” value worked out at 1.29 nM. Also, in experiment [11], the “IC50, HIV-1 NL4.3 wt, MT-4” value worked out at 6 nM; the “IC50, NL4.3 2G12 res., MT-4” value stood at 3 nM; the “IC50, NL4.3 AMD-3100 res., MT-4” value came to 14 nM; the “IC50, NL4.3 CD4#8 res., MT-4” value was found to be 95.7 nM. In [11], the “IC50, NL4.3 CXCL-12res., MT-4” value came out at 70 nM and the “IC50, NL4.3 CXCR4#2 res, MT-4” value was more than 310 nM.

B3: 57A07 (VHH)
VHH: EVQLVESGGGLVQAGGSLRLSCAASGSIFSGNVMGWYRRQAPGKEREWVAAIASGGSIYYRDSVKGRFTISRDNAKNTVYLQMNSLKPEDTAVYYCNSHPPTLPYWGLGTQVTVSS
notes: also called CD123#1; A0110057A07
As to B3, the EC50 was 0.66 nM in experiment [12], 0.67 nM in experiment [13], 1.3 nM in experiment [14] and 0.24 nM in [15]. In addition, in experiment [16], the Kd was found to be 0.783 nM. In addition, in experiment [16], the koff is 0.00081 s⁻¹. Also, the kon in [16] was found to be 1e+06 M⁻¹ s⁻¹. Also, the IC50 in [17] amounted to 1.2 nM. Further, in experiment [18], the binding result is “no binding (tested: about 1E-5 M)”. For the same molecule, the “EC50 (read off the curve)” value in [19] was approximately 0.5 nM.

B4: 55A01 (VHH)
VHH: EVQLVESGGGSVQAGGSLRLSCTTSGRALNMYVMGWFRQAPGNEREFVAATSSSGGSTSYPDSVKGRFTISRDNAKNTVYLQMNSLKPEDTAAYRCAASPYVSTPTMNILEEYRYWGLGTQVTVSS
notes: also called CD123#2; A0110055A01
On to B4, for which the “EC50 (read off the curve)” value in experiment [1] was approximately 1 nM. Further, the EC50 was 8.2 nM in experiment [12], 13 nM in experiment [13], 11 nM in [14] and 1.1 nM in experiment [15]. For the same molecule, the binding result in [20] is “no binding (tested: 4.6 nM)”. Moreover, the Kd in experiment [16] was determined as 17.1 nM. Moreover, the koff in experiment [16] worked out at 0.0014 s⁻¹. In experiment [16], the kon worked out at 84000 M⁻¹ s⁻¹. Besides, the IC50 in experiment [17] is 40 nM.

B5: 57A07-35GS-281F12 (bispecific antibody)
chain: EVQLVESGGGLVQAGGSLRLSCAASGSIFSGNVMGWYRRQAPGKEREWVAAIASGGSIYYRDSVKGRFTISRDNAKNTVYLQMNSLKPEDTAVYYCNSHPPTLPYWGQGTLVTVSSGGGGSGGGGSGGGGSGGGGSGGGGSGGGGSGGGGSEVQLVESGGGLVQAGDSLRLSCAASGRAFSRYAMGWFRQAPGKEREFVAAIGWGPSKTNYADSVKGRFTISRDNAKNTVYLQMNTLKPEDTAVYSCAAKFVNTDSTWSRSEMYTYWGQGTLVTVSS
notes: FLAG3-His6 also made; also called CD123#1-CXCR4#2; 57A07-281F12
Regarding B5, the binding result in experiment [21] and in experiment [22] was “binds” in each case. Further, in [19], the “EC50 (read off the curve)” value was approximately 0.5 nM.

Broadly, the EC50 (read off the curve) is the concentration that produces a half-maximal response. Broadly, the EC50 is the concentration at which the effect is half-maximal. Higher therefore signals weaker potency. Usually Kd stands for the concentration at which binding is half-saturated. For orientation: koff means the first-order rate constant of dissociation. For orientation: kon means the second-order rate constant of association. What is called IC50 is the concentration needed to halve the response being measured.

The record behind these values is patent publication US20160251440A1 (Ablynx, published 2016).
